Measurements reported in patent US20260115290A1.

Target: HLA-DR on K562-CD19-HLA-DR cells (alpha chain UniProtKB-P01903, beta chain UniProtKB-P04229) (human) (UniProt P01903)
Assay: cell-based or functional assay

anti-HLA-DR iCAR (FLAG tag, scFv of antibody 1D09C3, PD-1 hinge, transmembrane and intracellular domains) (from UniProt Q15116 145-288) (receptor)
CD107a+ population, single against dual CAR-NK cells, K562-CD19-HLA-DR target cells: 2 to 3 fold
IFN-γ production (ELISA), dual against single CAR-NK cells with K562-CD19-HLA-DR cells: 70 % reduction
